According to ChEMBL document CHEMBL1144764, “A molecular modeling study of the interaction of 2'-fluoro-substituted analogues of dUMP/FdUMP with thymidylate synthase” (Bioorg Med Chem Lett, 2008):

Tests used:
[1] = substrate: O=c1ccn([C@@H]2O[C@H](COP(=O)(O)O)[C@@H](O)[C@H]2F)c(=O)[nH]1; conditions: Homo sapiens
Description: (§1) Activity at human recombinant thymidylate synthase

[2] = substrate: O=c1ccn([C@H]2C[C@H](O)[C@@H](COP(=O)(O)O)O2)c(=O)[nH]1; conditions: Homo sapiens
Description: as §1

B1: Thymidylate synthase (Homo sapiens), P04818 (protein)
chain: MPVAGSELPRRPLPPAAQERDAEPRPPHGELQYLGQIQHILRCGVRKDDRTGTGTLSVFGMQARYSLRDEFPLLTTKRVFWKGVLEELLWFIKGSTNAKELSSKGVKIWDANGSRDFLDSLGFSTREEGDLGPVYGFQWRHFGAEYRDMESDYSGQGVDQLQRVIDTIKTNPDDRRIIMCAWNPRDLPLMALPPCHALCQFYVVNSELSCQLYQRSGDMGLGVPFNIASYALLTYMIAHITGLKPGDFIHTLGDAHIYLNHIEPLKIQLQREPRPFPKLRILRKVEKIDDFKAEDFQIEGYNPHPTIKMEMAV
Question: B1 was tested. Which Km [1] did it give?
Answer: 12.2 µM

Question: And the Km [2]?
Answer: 5.25 µM
